From article PMC8934265 come the findings set out here.

The target of data set [1] is T1, NFYA-1 (T08D10.1), MBP fusion;NFYB-1, MBP fusion;NFYC-1, MBP fusion (Caenorhabditis elegans;Caenorhabditis …, UniProt G5EEG1;O17286;O17072 1-482;1-403;1-232, ||).
T1 sequence 1: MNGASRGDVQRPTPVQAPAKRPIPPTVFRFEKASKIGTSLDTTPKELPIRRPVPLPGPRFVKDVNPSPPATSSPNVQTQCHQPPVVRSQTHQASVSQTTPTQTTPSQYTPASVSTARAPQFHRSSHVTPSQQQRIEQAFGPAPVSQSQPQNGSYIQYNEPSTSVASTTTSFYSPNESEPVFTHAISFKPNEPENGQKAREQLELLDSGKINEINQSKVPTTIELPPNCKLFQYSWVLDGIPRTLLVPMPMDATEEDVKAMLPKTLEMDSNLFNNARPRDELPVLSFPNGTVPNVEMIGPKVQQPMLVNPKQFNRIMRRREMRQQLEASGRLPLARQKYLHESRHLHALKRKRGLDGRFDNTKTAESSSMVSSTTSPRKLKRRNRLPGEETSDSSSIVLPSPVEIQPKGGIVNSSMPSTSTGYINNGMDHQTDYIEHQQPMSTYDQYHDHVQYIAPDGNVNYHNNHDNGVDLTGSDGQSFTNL
T1 sequence 2: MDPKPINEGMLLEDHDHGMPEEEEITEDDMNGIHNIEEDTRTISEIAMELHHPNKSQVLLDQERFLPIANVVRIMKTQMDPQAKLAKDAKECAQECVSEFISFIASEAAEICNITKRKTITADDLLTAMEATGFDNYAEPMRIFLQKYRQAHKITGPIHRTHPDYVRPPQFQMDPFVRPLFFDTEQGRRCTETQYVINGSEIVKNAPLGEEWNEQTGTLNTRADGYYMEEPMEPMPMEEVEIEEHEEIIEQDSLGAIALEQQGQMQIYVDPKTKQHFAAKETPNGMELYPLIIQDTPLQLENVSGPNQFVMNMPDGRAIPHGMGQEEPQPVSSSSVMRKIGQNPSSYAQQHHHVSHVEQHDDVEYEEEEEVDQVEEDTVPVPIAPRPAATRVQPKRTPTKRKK
T1 sequence 3: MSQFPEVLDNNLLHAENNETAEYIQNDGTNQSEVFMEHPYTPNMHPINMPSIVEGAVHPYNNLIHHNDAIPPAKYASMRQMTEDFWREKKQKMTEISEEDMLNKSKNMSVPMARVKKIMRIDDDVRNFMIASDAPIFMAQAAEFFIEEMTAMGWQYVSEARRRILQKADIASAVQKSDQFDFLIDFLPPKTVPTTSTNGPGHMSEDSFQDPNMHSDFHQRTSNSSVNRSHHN
In words: EMSA. (In general: A gel shift assay detects complexes by their altered migration in electrophoresis.)

Data set [2] has as its target T1, NFYA-1 (T08D10.1), MBP fusion;NFYB-1, …. Nature of the data set: competition.
Data set [3] shares this target. Nature of the data set: competition. The source holds these as a separate data set.

B1: CCAAT box probe (dsDNA)
DNA 1: AGTTGTAGGCCTCTGCTTCCTGACCAATCTACAGAATAGGCTCCGCCTTC
DNA 2: AGTTGAAGGCGGAGCCTATTCTGTAGATTGGTCAGGAAGCAGAGGCCTAC
With B1, in data set [1], the binding result is “binds”.

B2: CCAAT box mutant competitor (+mut) (dsDNA)
DNA 1: AGTTGTAGGCCTCTGCTTCCTGACATGTCTACAGAATAGGCTCCGCCTTC
DNA 2: AGTTGAAGGCGGAGCCTATTCTGTAGACATGTCAGGAAGCAGAGGCCTAC
For the molecule B2, the binding result in data set [2] is on record as “no binding”.

B3: CCAAT box wild-type competitor (+CAAT) (dsDNA)
DNA 1: AGTTGTAGGCCTCTGCTTCCTGACCAATCTACAGAATAGGCTCCGCCTTC
DNA 2: AGTTGAAGGCGGAGCCTATTCTGTAGATTGGTCAGGAAGCAGAGGCCTAC
Regarding B3, the binding result in data set [3] is recorded as “binds”.
